Consider 3 molecules from patent publication US20230322910A1 (published 2023).

One may read the Kd as the constant that tells how readily two partners part at equilibrium. A lower Kd goes with tighter binding.

Numbering of substitutions follows the chain as printed.

Test [1] addresses T1, PfRipr5 (fragment of Ripr, positions 720-934 of SEQ ID NO: 17), made by wheat germ cell-free synthesis with … (UniProt O97302 720-934).
T1 chain: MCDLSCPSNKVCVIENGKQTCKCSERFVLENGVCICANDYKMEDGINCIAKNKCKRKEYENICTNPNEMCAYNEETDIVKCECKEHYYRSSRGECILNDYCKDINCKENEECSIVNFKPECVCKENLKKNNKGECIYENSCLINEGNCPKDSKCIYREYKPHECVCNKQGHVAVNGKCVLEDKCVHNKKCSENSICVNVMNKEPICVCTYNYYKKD
The test can be described thus: SPR. Background: Surface plasmon resonance follows binding to a sensor surface in real time, without labels.

The next test concerns the target 4B7. The test can be described thus: SPR; U-value 95, negligible response.

B1: mouse monoclonal antibody 29B11 (antibody, V domains shown)
VH: EVQLQQSGPELMKPGASVKISCKTSGYTFTEYTMHWVKQSHGKSLEWIGGIDPNNGITIYDQKFKGKATLTVDKSSSTAYMELRSLTSEDSAVYYCTRYYYGHYFDYWGQGTTLTVSS
VL: DVLMTQTPLSLPVSLGDQASISCRSSQSIVHNNGHTYLEWYLQKPGQSPKLLIYKVSNRFSGVPDRFSGSGSGTDFTLKISRVEAEDLGIYYCFQDSHVPWTFGGGTKLEIKR
As for B1, in test [1], the affinity, expressed as Kd, was 2.19 nM.

B2: mouse monoclonal antibody 26H4 (antibody, V domains shown)
VH: B1 VH with M12V, I57V, D61N, K63N, Y95H, T97A
VL: B1 VL with N32S, H35N, I90V, D96N, P100T
As for B2, the Kd in test [1] was found to be 0.69 nM. This Kd is about 3.2-fold lower than that of the molecule before.

B3: - (other)
chain: T1 chain
As for B3, in the test with 4B7, binding was characterised by a dissociation constant (Kd) of 0.0693 nM.
